Experimental findings from article PMC9982576, “Nuclear Fructose‐1,6‐Bisphosphate Inhibits Tumor Growth and Sensitizes Chemotherapy by Targeting HMGB1” (Advanced Science, 2023) are described below.

Substitutions are numbered along the chain they refer to.

Assay [1] has as its target GFP(C)-HMGB1-K43/K44A-GFP(N) construct. Nature of the assay: split-GFP fluorescence complementation in HEK293 cells (Cytation cell imaging reader). Particulars: each construct normalised to its own 0 mM value (1.0), read off a plot.
The target of assay [2] is T1, HMGB1 (Homo sapiens, UniProt P09429).
T1 construct: full-length, expressed in and purified from human HEK293 cells; self-associates into oligomers
T1 sequence (P09429 1-215): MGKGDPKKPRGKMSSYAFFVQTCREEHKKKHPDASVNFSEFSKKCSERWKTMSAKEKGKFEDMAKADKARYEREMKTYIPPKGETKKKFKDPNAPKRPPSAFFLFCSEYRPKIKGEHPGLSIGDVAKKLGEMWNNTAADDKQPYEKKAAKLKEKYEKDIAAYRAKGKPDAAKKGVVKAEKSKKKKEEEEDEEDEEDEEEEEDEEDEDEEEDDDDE
Nature of the assay: isothermal titration calorimetry. The format is binding. As to conditions: 100 mM Hepes, 50 mM NaCl; single-site model; allosteric ligand.

The target in assay [3] is T2, HMGB1 A-box (aa1–83) (Homo sapiens, UniProt P09429).
T2 construct: A-box domain aa1-83, purified from HEK293 cells; assayed with synthetic C15 peptide (HMGB1 C-tail aa200-214)
T2 sequence (P09429 1-83): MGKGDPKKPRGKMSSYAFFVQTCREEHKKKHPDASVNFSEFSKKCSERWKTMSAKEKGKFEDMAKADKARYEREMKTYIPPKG
Nature of the assay: ITC of A-box with C15 peptide, with or without F1,6P. The format is binding. Particulars: 0.2 mM F1,6P; 100 mM Hepes, 50 mM NaCl; disruption of the A-box - C-tail peptide interaction.

The target in assay [4] is T1, HMGB1. Nature of the assay: SPR, inhibition of free HMGB1 binding to chip-anchored HMGB1. Particulars: 100 mM Hepes, 50 mM NaCl; 25 °C; HMGB1 self-association. The text has this: SPR, inhibition of free HMGB1 binding to chip-anchored HMGB1 on HMGB1 | inhibitory efficiency of F1,6P on free HMGB1 binding to chip‐anchored HMGB1
On the technique in general: SPR reads the build-up and loss of mass on a sensor chip optically.

Assay [5] deals with T1, HMGB1. Nature of the assay: SPR, inhibition of free HMGB1 binding to chip-anchored DNA. As to conditions: 100 mM Hepes, 50 mM NaCl; 25 °C; unmodified DNA.
For assay [6], the target named is T3, HMGB1 A-box (aa1–83), purified (UniProt P09429 1-83).
T3 construct: HMGB1 A-box, aa1-83; also called HMG A-box; source: HEK293 cells, expressed and purified
T3 sequence (looked up): T2 sequence (P09429 1-83)
Nature of the assay: ITC; purified HMGB1 A-box in the cell titrated with free C-tail (15) peptide; 100 mM Hepes, 50 mM NaCl; with or without 0.2 mM F1,6P; single site binding model. Particulars: both partners purified. (Isothermal titration calorimetry measures the heat released or taken up as one component is titrated into another.)

The target of assay [7] is T4, HMGB1 A-box K43/44A, purified (UniProt P09429 1-83, K43/44A | K43/44A).
T4 construct: HMGB1 A-box (aa1-83 as told for the wild-type A-box) with K43 and K44 changed to alanine; also called K43/44A A-box; source: HEK293 cells, expressed and purified
T4 sequence (looked up): T2 sequence (P09429 1-83) with K43A, K44A
Described as above. As to conditions: both partners purified.

Turning to “GFP(C)-HMGB1(A-B)-linker-HMGB1(C)-GFP(N) fusion protein K43A; K44A”, the response (relative fluorescence intensity) in assay [1] (1 mM F1,6P, parent: est. 0.83) was 0.93; in assay [1] (5 mM F1,6P, parent: est. 0.53), 0.92; in assay [1] (10 mM F1,6P, parent: est. 0.38) it was 0.9.
On to `O=P(O)(O)OC[C@H]1OC(O)(COP(=O)(O)O)[C@@H](O)[C@@H]1O` (stereo partly drawn) [F1,6P], for which the affinity in assay [2], expressed as Kd, was 28.6 µM. Also, the “ITC of A-box with C15 peptide, with or without F1,6P” value in assay [3] is “C15 peptide displayed good affinity for the A‐box, whereas the interaction was highly disrupted by F1,6P”. For the same molecule, the IC50 (commonly the concentration at which inhibition is half-maximal) stood at 12.7 µM in assay [4] and 14.1 µM in assay [5].

B1: C15 peptide (HMGB1 aa200–214) (peptide, UniProt P09429 200-214, looked up)
peptide: EEDEEDEDEEEDDDD
notes: HMGB1 acidic C-tail, aa200-214; also called C-tail (15) peptide; C-tail (15); source: synthetic peptide
On to B1, for which the binding result in assay [6] and in assay [7] was “binds” in each case.
